# Molecular target: Tenascin-C (Homo sapiens) (UniProt P24821)
# Test: filter
# Conditions: 2'-F all C and U; 2'-OMe all A and G except G1,G9,G28,G31,G34 (TN9 numbering) 2'-OH; (CH2CH2O)6 spacer replaces nt 10-26 (n in SEQ 64); 5' hexylamine; 3'-3' dT cap
# Chain of Tenascin-C (Homo sapiens) (P24821 23-2201): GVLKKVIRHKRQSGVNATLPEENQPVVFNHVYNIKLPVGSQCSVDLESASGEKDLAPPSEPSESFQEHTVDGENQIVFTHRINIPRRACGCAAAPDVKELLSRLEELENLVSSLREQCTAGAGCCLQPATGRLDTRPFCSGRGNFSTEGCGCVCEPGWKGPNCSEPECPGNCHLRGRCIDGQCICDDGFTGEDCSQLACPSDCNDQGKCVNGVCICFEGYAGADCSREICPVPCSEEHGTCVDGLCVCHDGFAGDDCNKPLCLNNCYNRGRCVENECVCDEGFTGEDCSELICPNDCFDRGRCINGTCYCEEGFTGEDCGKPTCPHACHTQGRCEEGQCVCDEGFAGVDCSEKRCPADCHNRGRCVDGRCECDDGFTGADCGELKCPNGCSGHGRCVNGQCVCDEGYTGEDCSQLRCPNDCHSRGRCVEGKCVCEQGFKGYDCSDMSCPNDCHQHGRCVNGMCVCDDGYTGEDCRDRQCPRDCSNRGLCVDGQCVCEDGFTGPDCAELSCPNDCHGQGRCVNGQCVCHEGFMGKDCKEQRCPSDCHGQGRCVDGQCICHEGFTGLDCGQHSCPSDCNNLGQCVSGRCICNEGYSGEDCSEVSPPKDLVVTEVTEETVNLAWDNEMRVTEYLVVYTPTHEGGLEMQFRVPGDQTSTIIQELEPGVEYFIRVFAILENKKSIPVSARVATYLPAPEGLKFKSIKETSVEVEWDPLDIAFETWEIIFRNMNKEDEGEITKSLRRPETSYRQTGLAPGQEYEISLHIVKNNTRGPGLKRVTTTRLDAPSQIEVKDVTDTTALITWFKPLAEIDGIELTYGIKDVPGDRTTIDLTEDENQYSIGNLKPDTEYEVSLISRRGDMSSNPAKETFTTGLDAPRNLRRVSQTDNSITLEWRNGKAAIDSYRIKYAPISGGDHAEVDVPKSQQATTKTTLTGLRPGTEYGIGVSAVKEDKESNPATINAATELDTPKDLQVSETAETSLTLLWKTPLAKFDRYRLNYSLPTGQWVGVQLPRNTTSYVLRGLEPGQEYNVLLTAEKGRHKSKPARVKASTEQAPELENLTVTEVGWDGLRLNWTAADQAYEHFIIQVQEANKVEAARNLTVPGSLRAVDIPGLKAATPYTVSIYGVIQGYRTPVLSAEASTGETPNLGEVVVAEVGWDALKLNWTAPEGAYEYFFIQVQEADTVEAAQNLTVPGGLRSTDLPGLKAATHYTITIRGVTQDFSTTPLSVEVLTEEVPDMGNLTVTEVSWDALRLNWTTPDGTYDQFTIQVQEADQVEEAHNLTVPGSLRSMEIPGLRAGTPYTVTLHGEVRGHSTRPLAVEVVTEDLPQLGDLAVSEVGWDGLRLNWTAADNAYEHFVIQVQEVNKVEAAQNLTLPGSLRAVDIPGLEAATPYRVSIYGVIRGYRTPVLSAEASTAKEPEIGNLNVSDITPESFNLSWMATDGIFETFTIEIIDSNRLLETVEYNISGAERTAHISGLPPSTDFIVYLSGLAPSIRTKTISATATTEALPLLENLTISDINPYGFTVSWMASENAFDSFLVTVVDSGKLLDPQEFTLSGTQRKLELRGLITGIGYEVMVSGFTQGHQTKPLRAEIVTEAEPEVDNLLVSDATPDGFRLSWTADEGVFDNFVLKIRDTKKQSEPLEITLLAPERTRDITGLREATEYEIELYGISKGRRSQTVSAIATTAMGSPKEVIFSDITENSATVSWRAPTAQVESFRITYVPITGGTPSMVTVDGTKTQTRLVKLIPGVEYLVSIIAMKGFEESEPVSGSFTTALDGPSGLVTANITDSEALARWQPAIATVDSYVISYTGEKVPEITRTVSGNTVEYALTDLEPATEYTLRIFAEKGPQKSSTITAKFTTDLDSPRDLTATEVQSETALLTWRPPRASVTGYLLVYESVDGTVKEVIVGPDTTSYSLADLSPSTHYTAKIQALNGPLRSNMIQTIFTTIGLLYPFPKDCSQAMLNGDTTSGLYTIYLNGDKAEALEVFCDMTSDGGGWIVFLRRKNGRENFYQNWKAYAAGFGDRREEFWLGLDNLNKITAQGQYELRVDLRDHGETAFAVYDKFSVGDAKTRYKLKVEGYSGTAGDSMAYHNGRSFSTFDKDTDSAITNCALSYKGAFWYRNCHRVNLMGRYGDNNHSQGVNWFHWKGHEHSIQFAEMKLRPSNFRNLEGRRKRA
sequence,measurement,value
GGGAGGACGNCGUCGCCGUAAUGGAUGUUUUGCUCCCUG [TTA1 (GS7641)],Kd,5 nM

# — patent US20060105378
